Data taken from patent EP4740967A1 (Shanghai Escugen Biotechnology Co., Ltd., dated 2026).

Assays:
Assay in all cases: cell-based or functional assay
[1] = target: T1, human Claudin18.2 (human, UniProt P56856 1-261)
T1 sequence (looked up): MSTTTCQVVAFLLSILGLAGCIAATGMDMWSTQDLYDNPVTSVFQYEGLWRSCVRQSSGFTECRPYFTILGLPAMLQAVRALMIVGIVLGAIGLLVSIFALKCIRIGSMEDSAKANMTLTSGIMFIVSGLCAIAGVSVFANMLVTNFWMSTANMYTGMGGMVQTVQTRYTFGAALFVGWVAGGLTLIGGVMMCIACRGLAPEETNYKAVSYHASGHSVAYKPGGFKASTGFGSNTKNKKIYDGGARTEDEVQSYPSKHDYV

[2] = target: T1, human Claudin18.2; remark: listed apart in the source
[3] = target: T1, human Claudin18.2; remark: listed apart in the source
[4] = target: T1, human Claudin18.2; remark: listed apart in the source

B1: 9D1-LD-38 (antibody, human IgG1, kappa, V domains shown)
VH: QIQLVQSGAEVKKPGASVKISCKASGYSFTDYHMNWVRQAPGKGLEWIGNIDPYYGSPTYNHKFKGRVTLTVDTSTSTAYMELSSLRSEDTAVYYCANYGRGNSFPYWGQGTLVTVSS
VL: DIVMTQSPSSLAVSLGERATINCKSSQSLLNSGNQRNYLTWYQQKPGQPPKLLIYWASTRESGVPDRFSGSGSGTDFTLTISSLQAEDVAVYYCQNDYSFPFTFGQGTKLEIKR
modifications: LD-38 linker-drug (Exatecan) on reduced interchain cysteine; main conjugation form one LD-38 molecule per light chain; LD-38 linker-drug (Exatecan) on reduced interchain cysteines; main conjugation form three LD-38 molecules per heavy chain (DAR 8 nominal, 7.8 measured)
**Q.** How did the “IC50 of in vitro cell killing on MC38-hClaudin18.2 cells (AlamarBlue cell viability)” value [1] turn out when B1 was run?
**A.** Its value is 1.36 nM.

**Q.** And the “IC50 of inhibition of proliferation of MC38-hClaudin18.2 cells (AlamarBlue cell viability, 72 h)” value [2]?
**A.** Its value is 0.632 nM.

**Q.** And the “IC50 of in vitro cell killing on NUGC4-hClaudin18.2 cells (CCK-8 cell viability, 120 h)” value [3]?
**A.** Its value is 0.728 nM.

**Q.** And the “IC50 of in vitro cell killing on HEK293-hClaudin18.2 cells (AlamarBlue cell viability, 72 h)” value [4]?
**A.** The value was 0.09 nM.
